The results in this text go back to the RNAGym collection of RNA variant scans (doi:10.1021/acssynbio.7b00057).

B1: Pistol ribozyme (parent)
chain: GGGUCGUUGUUCCAUAAUCGCGUGGAUAUGGCACGCAAGUUUCUACCGGGCACCGUAAAUGUCCGACUGGAGCCGUUCGGGCGGCUAUAAACAGACCUCAGGCCCGAAGCGUGGCGGCACCUGCCGCCGGUGGUAAAAAAGAUCGGAAGAGCACACGUCU

The variants in this series derive from B1. Put plainly: aptazyme ON/OFF ratio, guanine; higher = stronger switching; co-transcriptional cleavage with and without guanine.
Consider G9C U10G C12G C13A, for which the “aptazyme ON/OFF ratio” value is 1.22.
With U7A U8C G9U U10G U11C C12A the figure was 1.25.
With U8A G9U C12A the figure was 1.22.
For U7A U8G U10A U11G, the “aptazyme ON/OFF ratio” value is 1.95.
The value for G9C U11G C12U was 1.84.
The value for U7C U8A U11A C12U C13A was 1.16; that for U7A U8C G9U U10A U11A C12A C13U was 1.22; that for U8C G9A U10C C13A was 1.06.
Turning to U7A U8G G9U U10A U11C C12U C13G, the “aptazyme ON/OFF ratio” value is 1.49.
On to U7A U8A G9C U10A C12A C13G, for which the “aptazyme ON/OFF ratio” value came to 1.16.
In the case of U8A G9A U10G C13G, the “aptazyme ON/OFF ratio” value turned out to be 1.21.
The value for U8A G9C U11A C13G was 1.06; that for U7C G9C U10C C12G C13U was 1.08; that for U7G G9A U10A U11G C12A C13A was 1.05.
As to U7G G9U U10A U11G C12U C13U, the “aptazyme ON/OFF ratio” value is 1.27.
With U8C U10C U11G C12U C13U the figure was 1.46.
With U7C U10C U11A C12U C13U the figure was 1.22; with U7C U8C G9U U10C C13G, 1.08.
As for U7G G9A U10A U11G C12G, the “aptazyme ON/OFF ratio” value is 1.13.
On to U7A U10G C12U C13G, for which the “aptazyme ON/OFF ratio” value was 1.12.
With U7G U8G G9A U10C U11G C13G the figure was 1.28; with U8C G9C U11A C12A, 1.22; with U7G G9C U10C U11A C12U C13A, 1.18.
The value for U7C G9C U11G C12A C13G was 1.06; that for U7G U8C U10C U11A C13A was 1.18.
Regarding U7G U8A G9A U10G U11A, the “aptazyme ON/OFF ratio” value turned out to be 1.01.
Take U7G U8A G9A U10G U11C: the “aptazyme ON/OFF ratio” value came to 1.03.
With U7C U8A G9A U11G the figure was 1.09.
With G9A U10G U11A C12G C13U the figure was 1.53; with U7C G9A U10C U11G C12A, 1.28.
With U7C U8A G9C U10A C12U, the “aptazyme ON/OFF ratio” value was 1.22.
Consider C12A C13A, for which the “aptazyme ON/OFF ratio” value is 1.34.
U7G U8A G9C U10G U11C C12U C13U: the “aptazyme ON/OFF ratio” value was determined as 1.04.
With U7C U8G G9A U10A U11C the figure was 1.04; with U8A G9U U10A U11C C12G C13A, 1.14.
With U7A G9U U11G C12A C13G the figure was 1.36; with U7C U8G U11G C13G, 1.07.
With U7G U8G U10G U11G C12G C13U the figure was 1.31; with U7G U8A G9A U10C U11G C12A C13U, 1.13.
Take U8G G9U U10C U11G C12U: the “aptazyme ON/OFF ratio” value is 1.19.
The value for U7G U8G U10C U11A C12A C13U was 1.14.
With U7G U8G G9C U10C U11G C12G C13A the figure was 1.19; with U7A U8C G9U U10G U11A C12A C13U, 1.41.
As for U7A U8A G9C U10A U11C C13G, the “aptazyme ON/OFF ratio” value came to 1.05.
Regarding U7C U8A G9C U10G C12G, the “aptazyme ON/OFF ratio” value was found to be 1.28.
With U8A G9U U10A C12U the figure was 1.4.
Consider U7G G9C U11G C12U, for which the “aptazyme ON/OFF ratio” value is 1.43.
With U8A G9U U10C U11G C12A C13G the figure was 1.25; with U7C U8A G9C U10G U11C C12A C13G, 1.21.
On to U8A G9A U11A C12G C13A, for which the “aptazyme ON/OFF ratio” value amounted to 1.11.
With U7A U8G G9A U10C U11C C12G the figure was 1.07.
In the case of U7A U8C U10A C12A C13A, the “aptazyme ON/OFF ratio” value is 1.22.
Regarding U7G U8A U10A U11G C12G C13U, the “aptazyme ON/OFF ratio” value was 1.3.
The value for U7C U8C G9C U10G U11C C12G was 1.14.
As to U7A U8C G9U U10G U11C C13A, the “aptazyme ON/OFF ratio” value came to 1.17.
Turning to U7A U8G U10C C13A, the “aptazyme ON/OFF ratio” value came to 1.45.
The value for U7G U8A G9U U10G U11G was 1.11.
With U8A U10C C12U C13A the figure was 1.22; with G9U U10A U11C C13G, 1.04.
With U7A G9A U10A U11C C12G C13A the figure was 1.08; with U7A U8C G9A U10G U11A C12A C13G, 1.11; with U8G G9A U10G U11A C12U, 1.35.
With U8C G9U U11A C13G, the “aptazyme ON/OFF ratio” value stood at 1.03.
Turning to U7G U8C G9A U10C U11A C13G, the “aptazyme ON/OFF ratio” value was determined as 1.07.
As for U7G G9U U10A C13G, the “aptazyme ON/OFF ratio” value came to 1.18.
With U7G U8G U11A C12U C13G, the “aptazyme ON/OFF ratio” value was 1.36.
In the case of U8A G9U C13A, the “aptazyme ON/OFF ratio” value came to 1.24.
The value for U7C U8C G9C U10A U11C C12A C13G was 1.09.
The value for U7G U10A U11G C12A C13A was 1.06; that for U8G G9C U11A C12U C13G was 1.06.
With U7A U8C U10A U11C C12U the figure was 1.03; with U8A U10G U11G C12U, 1.48.
On to U7C U10A U11C C12A C13G, for which the “aptazyme ON/OFF ratio” value was 1.12.
With U8C G9C U10G U11C C12U C13A the figure was 1.17; with U7A U8G G9A U10G U11A C12A C13A, 1.19.
With G9C U10A U11C C12G C13U the figure was 1.24.
In the case of U8G G9U U11A C13A, the “aptazyme ON/OFF ratio” value worked out at 1.33.
Regarding G9U U10G C12U C13U, the “aptazyme ON/OFF ratio” value is 1.26.
With U8C G9U U10G U11C C12U C13G the figure was 1.11.
In the case of U7A U8A G9C U10C U11C C12A, the “aptazyme ON/OFF ratio” value came to 1.05.
With U7G G9A U10G U11A the figure was 1.05; with U7C U8G G9U C12U C13G, 1.33.
With U7G G9A U10G U11A C12G C13A the figure was 1.12; with U7A U8G G9A U10G U11C C12A C13U, 1.38.
